Reference: the supplement of paper PMC9112550, “Optimization of the antimicrobial peptide Bac7 by deep mutational scanning” (BMC Biology, 2022)

Tested on: Escherichia coli TOP10
Assay: shrunken log2 fold change of peptide-encoding DNA abundance (4.5 h post-induction vs induction); higher = less antimicrobial activity (less host growth inhibition)
Details: time post-induction: 4.5 h; library: site-saturation at positions 5, 18, 19, 20
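Also: peptides expressed intracellularly from a pBAD plasmid library in pooled LB shake-flask culture, induced with 0.3% L-arabinose, DNA abundance read by NGS, three biological replicates, DESeq2 with apeglm shrinkage.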

Sequence	shrunken log2 fold change
RRIRERPPRLPRPRPRPERKPRP	0.0538
RRIRRRPPRLPRPRPRPWVRPRP	-0.0986
RRIRVRPPRLPRPRPRPDNIPRP	-0.714
RRIRIRPPRLPRPRPRPSDPPRP	-0.136
RRIRNRPPRLPRPRPRPIFSPRP	0.0636
RRIRNRPPRLPRPRPRPFTQPRP	-0.348
RRIRIRPPRLPRPRPRPYLLPRP	-1.52
RRIRIRPPRLPRPRPRPDWDPRP	-0.318
RRIRWRPPRLPRPRPRPDVQPRP	0.0431
RRIRNRPPRLPRPRPRPSNLPRP	-0.457
RRIRLRPPRLPRPRPRPFLSPRP	-0.643
RRIRLRPPRLPRPRPRPHPKPRP	-0.0255
RRIRLRPPRLPRPRPRPCCCPRP	-0.117
RRIRDRPPRLPRPRPRPQNWPRP	-0.00585
RRIRVRPPRLPRPRPRPTSAPRP	0.0866
RRIRCRPPRLPRPRPRPKYRPRP	-0.326
RRIRTRPPRLPRPRPRPRWRPRP	0.483
RRIRARPPRLPRPRPRPFWIPRP	-0.0619
RRIRPRPPRLPRPRPRPDVAPRP	-0.0448
RRIRIRPPRLPRPRPRPFTNPRP	-0.16
RRIRMRPPRLPRPRPRPWEHPRP	0.0244
RRIRVRPPRLPRPRPRPVMSPRP	-0.213
RRIRWRPPRLPRPRPRPNSKPRP	-0.218
RRIRYRPPRLPRPRPRPGQFPRP	-0.0455
RRIRMRPPRLPRPRPRPETIPRP	0.0625

Sequence	shrunken log2 fold change
RRIRYRPPRLPRPRPRPFGTPRP	-0.158
RRIRRRPPRLPRPRPRPVPKPRP	0.234
RRIRKRPPRLPRPRPRPTFCPRP	0.193
RRIRGRPPRLPRPRPRPHDKPRP	0.475
RRIRNRPPRLPRPRPRPLVNPRP	-0.289
RRIRPRPPRLPRPRPRPDESPRP	-0.188
RRIRFRPPRLPRPRPRPFVGPRP	-0.0219
RRIRPRPPRLPRPRPRPPLNPRP	0.275
RRIRGRPPRLPRPRPRPDFRPRP	-0.043
RRIRERPPRLPRPRPRPHSVPRP	-0.00145
RRIRMRPPRLPRPRPRPVISPRP	-0.28
RRIRKRPPRLPRPRPRPLWYPRP	-0.511
RRIRNRPPRLPRPRPRPLSHPRP	-0.596
RRIRCRPPRLPRPRPRPHSAPRP	0.0702
RRIRCRPPRLPRPRPRPINCPRP	-0.0582
RRIRNRPPRLPRPRPRPKGHPRP	-0.104
RRIRGRPPRLPRPRPRPQPRPRP	0.9
RRIRGRPPRLPRPRPRPFGPPRP	0.355
RRIRIRPPRLPRPRPRPIHRPRP	-0.197
RRIRGRPPRLPRPRPRPYFGPRP	-0.335
RRIRKRPPRLPRPRPRPQAEPRP	0.0754
RRIRMRPPRLPRPRPRPEIEPRP	0.0729
RRIRKRPPRLPRPRPRPLNGPRP	0.0417
RRIRERPPRLPRPRPRPISWPRP	-0.246
RRIRSRPPRLPRPRPRPEHDPRP	-0.128

Sequence	shrunken log2 fold change
RRIRFRPPRLPRPRPRPMHDPRP	-0.236
RRIRPRPPRLPRPRPRPMADPRP	0.131
RRIRHRPPRLPRPRPRPQDLPRP	-0.0414
RRIRYRPPRLPRPRPRPIYVPRP	-1.88
RRIRIRPPRLPRPRPRPWFAPRP	-0.31
RRIRKRPPRLPRPRPRPDKVPRP	0.116
RRIRKRPPRLPRPRPRPPFYPRP	0.229
RRIRTRPPRLPRPRPRPNESPRP	-0.379
RRIRIRPPRLPRPRPRPEHAPRP	0.00666
RRIRVRPPRLPRPRPRPNALPRP	-0.379
RRIRTRPPRLPRPRPRPEGTPRP	0.0681
RRIRERPPRLPRPRPRPGGYPRP	-0.563
RRIRDRPPRLPRPRPRPWPGPRP	0.104
RRIRNRPPRLPRPRPRPHYNPRP	-0.619
RRIRTRPPRLPRPRPRPIGAPRP	0.089
RRIRTRPPRLPRPRPRPFTWPRP	-0.308
RRIRRRPPRLPRPRPRPKFIPRP	-0.207
RRIRARPPRLPRPRPRPCNLPRP	-0.314
RRIRIRPPRLPRPRPRPICNPRP	-0.607
RRIRDRPPRLPRPRPRPFEYPRP	-0.00586
RRIRHRPPRLPRPRPRPDPMPRP	0.0718
RRIRVRPPRLPRPRPRPSNAPRP	0.111
RRIRARPPRLPRPRPRPYNNPRP	-0.817
RRIRQRPPRLPRPRPRPQFYPRP	-0.407
RRIRQRPPRLPRPRPRPVSDPRP	-0.0568

Sequence	shrunken log2 fold change
RRIRMRPPRLPRPRPRPVDAPRP	1.17
RRIRMRPPRLPRPRPRPSARPRP	1.07
RRIRRRPPRLPRPRPRPNSHPRP	-0.11
RRIRRRPPRLPRPRPRPKRRPRP	0.525
RRIRHRPPRLPRPRPRPTGLPRP	-0.515
RRIRHRPPRLPRPRPRPSMAPRP	0.231
RRIRARPPRLPRPRPRPVWWPRP	0.987
RRIRHRPPRLPRPRPRPTMCPRP	-0.00396
RRIRVRPPRLPRPRPRPSMVPRP	-0.475
RRIRARPPRLPRPRPRPYEHPRP	-0.25
RRIRPRPPRLPRPRPRPNIWPRP	-0.0307
RRIRSRPPRLPRPRPRPNQHPRP	-0.201
RRIRQRPPRLPRPRPRPMISPRP	-0.0269
RRIRSRPPRLPRPRPRPKMQPRP	0.055
RRIRWRPPRLPRPRPRPPQLPRP	0.462
RRIRWRPPRLPRPRPRPFCKPRP	-0.13
RRIRCRPPRLPRPRPRPKKAPRP	-0.235
RRIRLRPPRLPRPRPRPVTSPRP	-0.0743
RRIRERPPRLPRPRPRPIITPRP	-0.867
RRIRSRPPRLPRPRPRPNDQPRP	-0.102
RRIRQRPPRLPRPRPRPGPRPRP	0.565
RRIRRRPPRLPRPRPRPIAEPRP	0.446
RRIRGRPPRLPRPRPRPIDKPRP	1.2
RRIRWRPPRLPRPRPRPTDTPRP	-0.0769
RRIRSRPPRLPRPRPRPVLIPRP	-0.000674

Sequence	shrunken log2 fold change
RRIRQRPPRLPRPRPRPGRPPRP	0.121
RRIRVRPPRLPRPRPRPQHAPRP	-0.154
RRIRSRPPRLPRPRPRPWGEPRP	0.00882
RRIRGRPPRLPRPRPRPCHVPRP	-0.172
RRIRYRPPRLPRPRPRPFGHPRP	-0.15
RRIRNRPPRLPRPRPRPTHLPRP	0.109
RRIRHRPPRLPRPRPRPHYYPRP	-0.216
RRIRPRPPRLPRPRPRPMTAPRP	0.162
RRIRHRPPRLPRPRPRPVNGPRP	-0.0224
RRIRPRPPRLPRPRPRPIQHPRP	-0.053
RRIRWRPPRLPRPRPRPPQPPRP	0.66
RRIRNRPPRLPRPRPRPRCGPRP	0.0586
RRIRIRPPRLPRPRPRPPEQPRP	0.118
RRIRTRPPRLPRPRPRPMSAPRP	-0.152
RRIRLRPPRLPRPRPRPEVSPRP	0.254
RRIRTRPPRLPRPRPRPCPEPRP	-0.0641
RRIRMRPPRLPRPRPRPMGCPRP	0.0612
RRIRMRPPRLPRPRPRPAESPRP	0.419
RRIRCRPPRLPRPRPRPSCTPRP	-0.287
RRIRNRPPRLPRPRPRPFLHPRP	-0.351
RRIRMRPPRLPRPRPRPVEDPRP	0.358
RRIRKRPPRLPRPRPRPPVKPRP	0.181
RRIRPRPPRLPRPRPRPFWRPRP	0.0788
RRIRERPPRLPRPRPRPEVKPRP	-0.0524
RRIRARPPRLPRPRPRPDFMPRP	0.466

Sequence	shrunken log2 fold change
RRIRNRPPRLPRPRPRPHTAPRP	-0.158
RRIRRRPPRLPRPRPRPWSGPRP	0.0397
RRIRMRPPRLPRPRPRPGQVPRP	0.418
RRIRTRPPRLPRPRPRPLQWPRP	0.206
RRIRLRPPRLPRPRPRPNRMPRP	1.82
RRIRPRPPRLPRPRPRPKTLPRP	-0.0149
RRIRVRPPRLPRPRPRPAATPRP	0.609
RRIRCRPPRLPRPRPRPMSFPRP	-0.29
RRIRLRPPRLPRPRPRPVMHPRP	-0.16
RRIRLRPPRLPRPRPRPYNEPRP	-0.78
RRIRERPPRLPRPRPRPCWLPRP	-0.0175
RRIRSRPPRLPRPRPRPLVNPRP	-0.138
RRIRRRPPRLPRPRPRPRVIPRP	0.0591
RRIRSRPPRLPRPRPRPDNDPRP	-0.0528
RRIRGRPPRLPRPRPRPPEKPRP	1.64
RRIRLRPPRLPRPRPRPVPRPRP	0.352
RRIRVRPPRLPRPRPRPNQNPRP	-0.312
RRIRARPPRLPRPRPRPDDTPRP	0.468
RRIRMRPPRLPRPRPRPAHLPRP	0.0862
RRIRHRPPRLPRPRPRPHWRPRP	0.125
RRIRKRPPRLPRPRPRPPRPPRP	1.34
RRIRDRPPRLPRPRPRPYAHPRP	-0.31
RRIRWRPPRLPRPRPRPTITPRP	-0.335
RRIRDRPPRLPRPRPRPGDIPRP	-0.0568
RRIRLRPPRLPRPRPRPDLAPRP	-0.062
